In article doi:10.1101/2020.03.20.000893 (bioRxiv, 2020):

Target: the molecule itself
Assay: crystal structure

B1: K2P2.1_(cryst), engineered mouse K2P2.1 (TREK-1) (domain or fragment, UniProt P97438-2 21-322, looked up)
chain: SFSSKPTVLASRVESDSAINVMKWKTVSTIFLVVVLYLIIGATVFKALEQPQEISQRTTIVIQREKFLRAHPCVSDQELDELIQQIVAAINAGIIPLGASSNQVSHWDLGSSFFFAGTVITTIGFGNISPRTEGGKIFCIIYALLGIPLFGFLLAGVGDQLGTIFGKGIAKVEDTFIKWNVSQTKIRIISTIIFILFGCVLFVALPAVIFKHIEGWSALDAIYFVVITLTTIGFGDYVAGGSDIEYLDFYKPVVWFWILVGLAYFAAVLSMIGDWLRVIAKKTKEAVGEFRAHAAEWTANVT
B1: binds.
